Laboratory results as given in the supplement of paper PMC10567573.

B1: CDC25A (parent)
chain: TVAGKHQDLKYISPEIMASVLNGK

Variants of: B1
Test: protein stability index of a GFP-peptide fusion (GPS, HEK-293T) (PSI 1-6); higher = more stable
Settings: c terminus: a fixed tail appended
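Note: lentivirally expressed fusions sorted by FACS into six bins by GFP to DsRed ratio, PSI derived from sequencing read proportions per bin multiplied by bin number.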

| Variant | protein stability index |
| --- | --- |
| TVAGKHQDLKYYSPEIMASVLNGK [I12Y] | 3.37 |
| TVAGKHQDLKYTSPEIMASVLNGK [I12T] | 3.76 |
| TVAGKHQDLKYMSPEIMASVLNGK [I12M] | 3.48 |
| TVAGKHQDLKYSSPEIMASVLNGK [I12S] | 3.91 |
| TVAGKHQDLKYISPEQMASVLNGK [I16Q] | 4.28 |
| TVAGKHQDLKYISPEGMASVLNGK [I16G] | 3.84 |
| TVAGKHQDLKYISPEDMASVLNGK [I16D] | 4.25 |
| TVAGKHQDLKYISPELMASVLNGK [I16L] | 2.86 |
| TVAGKHQDLKYISPEPMASVLNGK [I16P] | 4.45 |
| TVAGKHQDLKYISPEKMASVLNGK [I16K] | 3.42 |
| TVAGKHQDLKYISPECMASVLNGK [I16C] | 3.44 |
| TVAGKHQDLKYISPEWMASVLNGK [I16W] | 2.87 |
| TVAGKHQDLKYISPEMMASVLNGK [I16M] | 3.62 |
| TVAGKHQDLKYISPERMASVLNGK [I16R] | 3.73 |
| TVAGKHQDLKYISPEHMASVLNGK [I16H] | 3.97 |
| TVAGKHQDLKYISPETMASVLNGK [I16T] | 3.62 |
| TVAGKHQDLKYISPESMASVLNGK [I16S] | 3.78 |
| TVAGKHQDLKYISPEYMASVLNGK [I16Y] | 2.85 |
| TVAGKHQDLKYISPEEMASVLNGK [I16E] | 4.29 |
| TVAGKHQDLKYISPEFMASVLNGK [I16F] | 2.87 |
| TVAGKHQDLKYISPENMASVLNGK [I16N] | 3.8 |
| TVAGKHQDLKYISPEVMASVLNGK [I16V] | 3.47 |
| TVAGKHQDLKYISPEAMASVLNGK [I16A] | 3.66 |
| TVAGKHQDLKYIIPEIMASVLNGK [S13I] | 2.19 |

| Variant | protein stability index |
| --- | --- |
| TVAGKHQDLKYIDPEIMASVLNGK [S13D] | 3.73 |
| TVAGKHQDLKYILPEIMASVLNGK [S13L] | 2.49 |
| TVAGKHQDLKYINPEIMASVLNGK [S13N] | 3.32 |
| TVAGKHQDLKYIFPEIMASVLNGK [S13F] | 2.39 |
| TVAGKHQDLKYIHPEIMASVLNGK [S13H] | 2.71 |
| TVAGKHQDLKYIYPEIMASVLNGK [S13Y] | 2.63 |
| TVAGKHQDLKYICPEIMASVLNGK [S13C] | 2.43 |
| TVAGKHQDLKYIPPEIMASVLNGK [S13P] | 3.12 |
| TVAGKHQDLKYIMPEIMASVLNGK [S13M] | 2.31 |
| TVAGKHQDLKYIKPEIMASVLNGK [S13K] | 3.16 |
| TVAGKHQDLKYIAPEIMASVLNGK [S13A] | 3.4 |
| TVAGKHQDLKYIWPEIMASVLNGK [S13W] | 2.12 |
| TVAGKHQDLKYIRPEIMASVLNGK [S13R] | 3.21 |
| TVAGKHQDLKYIQPEIMASVLNGK [S13Q] | 3.53 |
| TVAGKHQDLKYIGPEIMASVLNGK [S13G] | 3.37 |
| TVAGKHQDLKYITPEIMASVLNGK [S13T] | 3.15 |
| TVAGKHQDLKYIVPEIMASVLNGK [S13V] | 2.65 |
| TVAGKHQDLKYIEPEIMASVLNGK [S13E] | 3.69 |
| TVAGKHQDLKYISPEIMMSVLNGK [A18M] | 2.33 |
| TVAGKHQDLKYISPEIMQSVLNGK [A18Q] | 3.34 |
| TVAGKHQDLKYISPEIMLSVLNGK [A18L] | 2.53 |
| TVAGKHQDLKYISPEIMPSVLNGK [A18P] | 3.6 |
| TVAGKHQDLKYISPEIMVSVLNGK [A18V] | 2.54 |
| TVAGKHQDLKYISPEIMESVLNGK [A18E] | 4 |

| Variant | protein stability index |
| --- | --- |
| TVAGKHQDLKYISPEIMFSVLNGK [A18F] | 2.73 |
| TVAGKHQDLKYISPEIMDSVLNGK [A18D] | 3.45 |
| TVAGKHQDLKYISPEIMYSVLNGK [A18Y] | 2.65 |
| TVAGKHQDLKYISPEIMTSVLNGK [A18T] | 3.74 |
| TVAGKHQDLKYISPEIMRSVLNGK [A18R] | 2.71 |
| TVAGKHQDLKYISPEIMWSVLNGK [A18W] | 1.97 |
| TVAGKHQDLKYISPEIMNSVLNGK [A18N] | 3.1 |
| TVAGKHQDLKYISPEIMKSVLNGK [A18K] | 3.16 |
| TVAGKHQDLKYISPEIMHSVLNGK [A18H] | 3.08 |
| TVAGKHQDLKYISPEIMSSVLNGK [A18S] | 3.3 |
| TVAGKHQDLKYISPEIMISVLNGK [A18I] | 2.13 |
| TVAGKHQDLKYISPEIMGSVLNGK [A18G] | 3.44 |
| TVAGKHQDLKYISPEIMCSVLNGK [A18C] | 3.11 |
| TVAGKHQDLKYISPEIMAWVLNGK [S19W] | 1.94 |
| TVAGKHQDLKYISPEIMAAVLNGK [S19A] | 3.1 |
| TVAGKHQDLKYISPEIMAFVLNGK [S19F] | 2.01 |
| TVAGKHQDLKYISPEIMANVLNGK [S19N] | 3.61 |
| TVAGKHQDLKYISPEIMAVVLNGK [S19V] | 2.13 |
| TVAGKHQDLKYISPEIMALVLNGK [S19L] | 1.86 |
| TVAGKHQDLKYISPEIMAGVLNGK [S19G] | 2.77 |
| TVAGKHQDLKYISPEIMAKVLNGK [S19K] | 3.24 |
| TVAGKHQDLKYISPEIMAQVLNGK [S19Q] | 3.28 |
| TVAGKHQDLKYISPEIMACVLNGK [S19C] | 2.46 |
| TVAGKHQDLKYISPEIMADVLNGK [S19D] | 3.41 |

| Variant | protein stability index |
| --- | --- |
| TVAGKHQDLKYISPEIMAYVLNGK [S19Y] | 1.88 |
| TVAGKHQDLKYISPEIMAHVLNGK [S19H] | 2.88 |
| TVAGKHQDLKYISPEIMAMVLNGK [S19M] | 2.38 |
| TVAGKHQDLKYISPEIMAEVLNGK [S19E] | 4.06 |
| TVAGKHQDLKYISPEIMAIVLNGK [S19I] | 2.16 |
| TVAGKHQDLKYISPEIMATVLNGK [S19T] | 2.83 |
| TVAGKHQDLKYISPEIMAPVLNGK [S19P] | 3.65 |
| TVAGKHQDLKYISPEIMARVLNGK [S19R] | 3.29 |
| TVAGKHQDLKYISPEIMASVCNGK [L21C] | 3.54 |
| TVAGKHQDLKYISPEIMASVENGK [L21E] | 4.02 |
| TVAGKHQDLKYISPEIMASVPNGK [L21P] | 4.08 |
| TVAGKHQDLKYISPEIMASVINGK [L21I] | 3.35 |
| TVAGKHQDLKYISPEIMASVQNGK [L21Q] | 4 |
| TVAGKHQDLKYISPEIMASVKNGK [L21K] | 4.25 |
| TVAGKHQDLKYISPEIMASVANGK [L21A] | 3.83 |
| TVAGKHQDLKYISPEIMASVMNGK [L21M] | 3.4 |
| TVAGKHQDLKYISPEIMASVRNGK [L21R] | 3.7 |
| TVAGKHQDLKYISPEIMASVGNGK [L21G] | 3.83 |
| TVAGKHQDLKYISPEIMASVFNGK [L21F] | 3.16 |
| TVAGKHQDLKYISPEIMASVNNGK [L21N] | 3.65 |
| TVAGKHQDLKYISPEIMASVHNGK [L21H] | 4.05 |
| TVAGKHQDLKYISPEIMASVDNGK [L21D] | 4.05 |
